Measurements reported in paper PMC12700175.

Molecular target: Pyruvate kinase M2 (PKM2) of mouse retina (mouse (endogenous in retina)) (UniProt P52480)
Assay: cross-linking

Substance: Pyruvate kinase M2 (PKM2) of mouse retina (from UniProt P52480 1-531) (enzyme)
- stoichiometry N: 4
